Reference: patent publication US20030175276A1

Target: VEGF:sFlk-1 complex (human; mouse) (UniProt P15692)
Experiment: capture ELISA: biotinylated sFlk-1 complexed with VEGF titrated onto wells coated with irrelevant IgM, concentration giving 50% maximal binding; extrapolated value

Chain of VEGF:sFlk-1 complex (human; mouse) (P15692 other isoform, or with tags, fused parts or gaps limits assumed, chain 1 of 2): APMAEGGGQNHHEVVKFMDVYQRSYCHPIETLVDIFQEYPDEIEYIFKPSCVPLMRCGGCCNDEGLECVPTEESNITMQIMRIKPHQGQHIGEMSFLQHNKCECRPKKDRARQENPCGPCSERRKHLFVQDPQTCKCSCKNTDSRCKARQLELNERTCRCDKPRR
Chain of VEGF:sFlk-1 complex (human; mouse) (P35918 20-762 limits assumed, chain 2 of 2, further chain): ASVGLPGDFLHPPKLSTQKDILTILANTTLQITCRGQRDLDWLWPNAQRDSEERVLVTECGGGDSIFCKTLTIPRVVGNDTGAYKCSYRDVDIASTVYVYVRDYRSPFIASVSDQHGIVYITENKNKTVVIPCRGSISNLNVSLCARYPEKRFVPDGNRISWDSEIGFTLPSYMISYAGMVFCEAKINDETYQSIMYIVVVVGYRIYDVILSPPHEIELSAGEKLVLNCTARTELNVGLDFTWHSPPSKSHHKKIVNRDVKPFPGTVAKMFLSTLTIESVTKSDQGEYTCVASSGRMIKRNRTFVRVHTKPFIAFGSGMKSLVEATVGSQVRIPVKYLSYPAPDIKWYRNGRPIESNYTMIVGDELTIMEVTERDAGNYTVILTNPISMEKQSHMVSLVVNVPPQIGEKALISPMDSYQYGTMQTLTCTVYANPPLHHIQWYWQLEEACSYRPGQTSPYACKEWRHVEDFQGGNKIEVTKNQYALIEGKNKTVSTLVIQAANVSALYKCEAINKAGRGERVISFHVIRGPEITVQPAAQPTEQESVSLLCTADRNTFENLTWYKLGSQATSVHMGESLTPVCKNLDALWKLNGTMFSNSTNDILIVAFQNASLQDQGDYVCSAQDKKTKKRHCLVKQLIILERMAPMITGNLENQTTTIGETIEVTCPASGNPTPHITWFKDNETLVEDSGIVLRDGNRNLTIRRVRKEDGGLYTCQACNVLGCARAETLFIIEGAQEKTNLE

irrelevant IgM (negative control of Table 2) (antibody)
EC50: 600 nM
